Results: the supplement of paper PMC9732359
± gives the uncertainty stated by the source.

Assay: protein stability index of a GFP-peptide fusion (yeast GPS) (PSI 1-4); higher = more stable; sorted into four equal gates, so the index is relative within each strain
Outline: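 Plasmids isolated from each sorting gate were PCR-amplified and Illumina-sequenced, and barcodes assigned the reads to strains. The gates, four of equal size, were set by GFP/Cherry fluorescence ratio on mid-log cultures in leucine-free medium. These cultures were yeast carrying a pooled library of tiled 17-residue yeast protein peptides fused downstream of GFP on a plasmid that also expresses Cherry. The protein stability index is the sum of every gate's read frequency times its gate number.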

RLNNVFVIGEQGKPYIS [RPS4A]
protein stability index (doa10∆): 2.66 ± 0.11
protein stability index (pdr5∆): 3.02 ± 0.094
protein stability index (san1∆): 3.1 ± 0.11
protein stability index (ubr1∆): 2.12 ± 0.057

EGTPINNVYFAAGALFV [RPN14]
protein stability index (doa10∆): 2.2 ± 0.091
protein stability index (pdr5∆): 2.63 ± 0.13
protein stability index (san1∆): 2.72 ± 0.12
protein stability index (ubr1∆): 2.45 ± 0.11

KIRELEAELSSTKVENS [YIL149C/MLP2]
protein stability index (doa10∆): 2.79 ± 0.13
protein stability index (pdr5∆): 3.12 ± 0.099
protein stability index (san1∆): 3.23 ± 0.089
protein stability index (ubr1∆): 3.12 ± 0.064

VEINSSESDLDEDKNFP [ESC2]
protein stability index (doa10∆): 2.99 ± 0.063
protein stability index (pdr5∆): 2.66 ± 0.056
protein stability index (san1∆): 3.25 ± 0.052
protein stability index (ubr1∆): 3.16 ± 0.057

SKTSENKVSNTVSPTQD [SIR2]
protein stability index (doa10∆): 2.98 ± 0.14
protein stability index (pdr5∆): 3.12 ± 0.066
protein stability index (san1∆): 2.83 ± 0.093
protein stability index (ubr1∆): 3.15 ± 0.12

VVILARAKALGIKVTNP [RPL32]
protein stability index (doa10∆): 3.16 ± 0.14
protein stability index (pdr5∆): 3.2 ± 0.16
protein stability index (san1∆): 2.55 ± 0.12
protein stability index (ubr1∆): 2.93 ± 0.076

WEHTAAEDQILANFVAK [SRB8]
protein stability index (pdr5∆): 2.5 ± 0.17
protein stability index (ubr1∆): 2.57 ± 0.11

TRFEVELEFIQSLANIQ [SOH1]
protein stability index (doa10∆): 2.15 ± 0.082
protein stability index (pdr5∆): 2.29 ± 0.061
protein stability index (san1∆): 2.14 ± 0.1
protein stability index (ubr1∆): 2.5 ± 0.058

PIDNNIIFASTKLGFTF [SNU114]
protein stability index (doa10∆): 2.63 ± 0.05
protein stability index (pdr5∆): 2.52 ± 0.047
protein stability index (san1∆): 2.38 ± 0.054
protein stability index (ubr1∆): 2.67 ± 0.035

SIGSIYQWNLDGLQQLD [RPN1]
protein stability index (doa10∆): 3.26 ± 0.1
protein stability index (pdr5∆): 3.4 ± 0.068
protein stability index (san1∆): 1.93 ± 0.1
protein stability index (ubr1∆): 2.96 ± 0.067

PLPHRVQKSTKTFSYKR [RPL20A]
protein stability index (doa10∆): 2.39 ± 0.058
protein stability index (pdr5∆): 2.93 ± 0.051
protein stability index (san1∆): 2.63 ± 0.057
protein stability index (ubr1∆): 2.38 ± 0.043

KSSFVKESAVISKQKSK [SMC1]
protein stability index (doa10∆): 2.18 ± 0.1
protein stability index (pdr5∆): 2.34 ± 0.046
protein stability index (san1∆): 2.26 ± 0.064
protein stability index (ubr1∆): 2.37 ± 0.037

SRGAVSGQKAGLIAARR [RPL2A]
protein stability index (doa10∆): 3.4 ± 0.093
protein stability index (pdr5∆): 3.32 ± 0.083
protein stability index (san1∆): 3.27 ± 0.065
protein stability index (ubr1∆): 3.25 ± 0.097
